One block for each substance: values may come before it.
Legend:
[1] = target: FLAG-tagged RAD18 expressed in human cells (human) (UniProt Q9NS91); test: quantitative western blotting against a reference complex
[2] = target: untagged RAD18 expressed in human cells (human) (UniProt Q9NS91); test: as above
[3] = target: ^HisRAD18^ΔN1 (residues 113-495) (human) (UniProt Q9NS91); test: quantitative SDS-PAGE
[4] = target: human RAD18, wild type, His-tagged or FLAG-tagged (human) (UniProt Q9NS91); test: quantitative SDS-PAGE
[5] = target: RAD18^ΔC1 (residues 1-341), His-tagged or FLAG-tagged (human) (UniProt Q9NS91); test: quantitative SDS-PAGE
Sequence of RAD18^ΔC1 (residues 1-341), His-tagged or FLAG-tagged (human) (Q9NS91 1-341, stated change not applied): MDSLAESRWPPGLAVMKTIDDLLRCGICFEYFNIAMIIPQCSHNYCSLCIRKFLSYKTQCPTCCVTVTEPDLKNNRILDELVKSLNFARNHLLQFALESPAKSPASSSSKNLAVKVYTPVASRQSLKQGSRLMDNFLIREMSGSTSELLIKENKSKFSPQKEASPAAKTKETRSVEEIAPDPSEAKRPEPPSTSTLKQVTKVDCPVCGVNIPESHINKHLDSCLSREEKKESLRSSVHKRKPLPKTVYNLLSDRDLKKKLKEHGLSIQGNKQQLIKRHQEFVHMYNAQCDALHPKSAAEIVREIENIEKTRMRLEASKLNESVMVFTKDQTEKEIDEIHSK

Sequence of human RAD18, wild type, His-tagged or FLAG-tagged (Q9NS91 whole entry): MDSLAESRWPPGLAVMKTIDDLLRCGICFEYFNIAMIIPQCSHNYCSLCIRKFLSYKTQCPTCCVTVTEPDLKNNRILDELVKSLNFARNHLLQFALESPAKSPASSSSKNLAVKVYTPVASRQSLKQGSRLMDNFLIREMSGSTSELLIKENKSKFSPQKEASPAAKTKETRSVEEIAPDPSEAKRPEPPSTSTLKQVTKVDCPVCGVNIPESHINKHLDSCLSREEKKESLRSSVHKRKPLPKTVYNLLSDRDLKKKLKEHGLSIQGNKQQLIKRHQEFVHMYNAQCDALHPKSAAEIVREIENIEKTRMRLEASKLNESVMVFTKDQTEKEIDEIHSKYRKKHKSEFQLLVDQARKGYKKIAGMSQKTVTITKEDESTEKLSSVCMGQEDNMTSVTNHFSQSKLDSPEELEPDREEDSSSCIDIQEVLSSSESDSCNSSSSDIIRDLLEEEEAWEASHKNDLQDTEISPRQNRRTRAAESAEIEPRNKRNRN
Sequence of FLAG-tagged human RAD6A (P49459 whole entry): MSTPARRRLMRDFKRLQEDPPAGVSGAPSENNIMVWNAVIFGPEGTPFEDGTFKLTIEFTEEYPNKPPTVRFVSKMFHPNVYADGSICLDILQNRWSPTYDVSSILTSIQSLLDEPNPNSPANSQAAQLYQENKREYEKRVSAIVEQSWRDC
Sequence of untagged RAD6A expressed in human cells (P49459 whole entry): as above
Sequence of human RAD6A (P49459 whole entry): as above
Sequence of HA-tagged RAD6A expressed in human cells (P49459 whole entry): as above
Sequence of untagged RAD18 expressed in human cells (Q9NS91 whole entry): as the sequence (Q9NS91 whole entry) above
Sequence of FLAG-tagged RAD18 expressed in human cells (Q9NS91 whole entry): as above
Sequence of human RAD18, wild type, His-tagged or FLAG-tagged (human) (Q9NS91 whole entry, the tested form may be a part): as the sequence (Q9NS91 whole entry) above
Sequence of FLAG-tagged RAD18 expressed in human cells (human) (Q9NS91 whole entry): as above
Sequence of untagged RAD18 expressed in human cells (human) (Q9NS91 whole entry, the tested form may be a part): as the sequence (Q9NS91 whole entry) above
Sequence of ^HisRAD18^ΔN1 (residues 113-495) (human) (Q9NS91 113-495, stated change not applied): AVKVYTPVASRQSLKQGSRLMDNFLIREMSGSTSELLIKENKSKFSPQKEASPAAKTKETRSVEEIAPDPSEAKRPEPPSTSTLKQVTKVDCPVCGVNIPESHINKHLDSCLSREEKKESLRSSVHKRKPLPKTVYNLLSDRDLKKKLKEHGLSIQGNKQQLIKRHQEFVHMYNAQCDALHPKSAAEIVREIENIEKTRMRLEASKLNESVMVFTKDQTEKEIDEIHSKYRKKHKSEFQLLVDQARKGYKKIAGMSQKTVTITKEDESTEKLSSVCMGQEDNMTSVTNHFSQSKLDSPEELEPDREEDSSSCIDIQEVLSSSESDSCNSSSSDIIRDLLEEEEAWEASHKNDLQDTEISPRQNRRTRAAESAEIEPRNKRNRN

Substance: FLAG-tagged RAD18 expressed in human cells (from UniProt Q9NS91 1-495) (enzyme)
stoichiometry N [1]: 2

Substance: untagged RAD18 expressed in human cells (from UniProt Q9NS91 1-495) (enzyme)
stoichiometry N [2]: 2

Substance: untagged RAD6A expressed in human cells (from UniProt P49459 1-152) (enzyme)
stoichiometry N (RAD6A per RAD18) [2]: 0.5

Substance: FLAG-tagged human RAD6A (from UniProt P49459 1-152) (enzyme)
stoichiometry N (RAD6A per RAD18) [4]: 0.5

Next, values leading:

stoichiometry N (RAD6A per RAD18) [1]: 0.5
Substance: HA-tagged RAD6A expressed in human cells (from UniProt P49459 1-152) (enzyme)

stoichiometry N (RAD6A per HisRAD18ΔN1) [3]: 1
Substance: human RAD6A (from UniProt P49459 1-152) (enzyme)

stoichiometry N (FLAGRAD18 per HisRAD18ΔC1) [5]: 1
ratio of HisRAD18 to FLAGRAD18 in the complex (HisRAD18 per FLAGRAD18) [4]: 1
Substance: human RAD18, wild type, His-tagged or FLAG-tagged (from UniProt Q9NS91 1-495) (enzyme)
